Source: patent US20190127461A1 (ORDER MADE MEDICAL RESEARCH, published 2019)

Columns and labels:
[1] = molecular target: T1, MCT5 (Monocarboxylate transporter 5) (human, UniProt O15374 1-487); experiment: flow cytometry on intact HCT116 cells, Alexa 488-labeled secondary antibody; negative control is cells without IMI4C4a
T1 construct: Membrane transporter on intact human cancer cells: MCF7-MCT5 (overexpressing), and MDA-MB231, HCT116 and SK-BR3 (endogenous); also called native MCT5; MCT5 isoform 1
Protocol: HCT116 cells (which are human colorectal cancer cells) were cultured to reach 90% confluency. After being washed twice with PBS(-), the cells were collected with Accutase (Life Technologies) and suspended at 4×10⁵ cells in […] of PBS(-) containing 1% FBS. To this suspension, the antibody IMI4C4a was added at a final concentration of […] and reacted on ice for 60 minutes. For use as a control, a cell suspension free from the antibody IMI4C4a was prepared.

[2] = molecular target: T2, ICD4 (region consisting of amino acids at positions 196 to 299 of MCT5) (human); experiment: ELISA, hybridoma culture supernatant on immobilized ICD4, POD-labeled anti-mouse immunoglobulin
T2 construct: Immunogen and ELISA coating antigen
T2 chain: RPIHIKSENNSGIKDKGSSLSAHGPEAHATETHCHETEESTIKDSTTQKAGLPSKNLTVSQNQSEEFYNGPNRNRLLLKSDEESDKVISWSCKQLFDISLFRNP
Protocol: Blood samples which had been collected from mice through their tail veins and diluted 1/160,000 with PBS(-), or alternatively, culture supernatants collected from wells in which hybridomas were growing were analyzed for their antibody titer. ICD4 was diluted with PBS(-) and dispensed into 96-well ELISA plates (Nunc) in an amount of 50 ng per well, and immobilized onto the plate surface by being allowed to stand at room temperature for 1 hour. Then, after the plates were washed three times with 350 μL of TBS-T (25 mM Tris, 150 mM NaCl, 0.05% (v/v) Tween 20, pH 7.4), PBS-T containing 5% skimmed milk was dispensed in a volume of 300 μL per well to conduct blocking for 1 hour at room temperature. After washing with TBS-T, the diluted blood samples or the culture supernatants were dispensed into the ICD4-immobilized ELISA plates and reacted for 1 hour at room temperature. After washing with TBS-T, a 10,000-fold dilution of peroxidase (hereinafter abbreviated as POD)-labeled anti-mouse immunoglobulin antibody (BETHYL) was dispensed in a volume of 100 μL per well and reacted for 1 hour at room temperature. […] After the reaction was stopped with 1.5 N sulfuric acid, the plates were measured for absorbance at 490 nm with a plate reader (Molecular Devices). […]

T1 sequence (O15374 whole entry, canonical isoform): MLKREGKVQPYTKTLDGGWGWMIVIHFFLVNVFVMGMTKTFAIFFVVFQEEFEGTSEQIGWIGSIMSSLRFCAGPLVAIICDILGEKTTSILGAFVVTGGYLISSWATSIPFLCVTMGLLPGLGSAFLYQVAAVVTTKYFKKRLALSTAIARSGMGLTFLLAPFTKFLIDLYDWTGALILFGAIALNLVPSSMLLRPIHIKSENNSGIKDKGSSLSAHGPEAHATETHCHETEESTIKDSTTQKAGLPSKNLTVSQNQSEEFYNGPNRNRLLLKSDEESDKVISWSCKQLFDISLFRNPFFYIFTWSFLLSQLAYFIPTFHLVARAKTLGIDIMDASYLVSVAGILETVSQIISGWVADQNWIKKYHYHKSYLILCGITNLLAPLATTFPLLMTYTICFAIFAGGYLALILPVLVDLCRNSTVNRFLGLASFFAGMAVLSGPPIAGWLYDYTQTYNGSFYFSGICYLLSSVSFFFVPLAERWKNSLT

binding result [1]: binds | binding result [2]: binds
B1: anti-MCT5 monoclonal antibody of clone No. IMI4C4a (antibody, V domains shown)
VH: EVQLQQSGAELVRPGALVKLSCKASGFNIKDYYMFWVKQRPEQGLEWIGWIDPENGNTIFDPKFQGKASITADTSSNTAYLQLSSLTSEDTAVYYCARMITTYYYAMDFWGQGTSVTVSS
VL: QLVLTQSSSASFSLGASAKLTCTLSSQHSTYTIEWYQQQPLKPPKYVMELKKDGSHSTGDGIPDRFSGSSSGADRYLSVSSIQPEDEAIYICGVGYTIKEQFVYVFGGGTK
notes: Mouse monoclonal antibody from a hybridoma, detected with anti-mouse IgG; also called antibody IMI4C4a; Mouse-Mouse hybridoma IMI4C4a
